Results from article PMC8818087 (Nature cancer, 2021).

T1: TC-SND1 (16-339aa) (UniProt Q7KZF4 16-339, FlAsH-EDT2 labelling reagent on the tetracysteine tag)
T1 sequence: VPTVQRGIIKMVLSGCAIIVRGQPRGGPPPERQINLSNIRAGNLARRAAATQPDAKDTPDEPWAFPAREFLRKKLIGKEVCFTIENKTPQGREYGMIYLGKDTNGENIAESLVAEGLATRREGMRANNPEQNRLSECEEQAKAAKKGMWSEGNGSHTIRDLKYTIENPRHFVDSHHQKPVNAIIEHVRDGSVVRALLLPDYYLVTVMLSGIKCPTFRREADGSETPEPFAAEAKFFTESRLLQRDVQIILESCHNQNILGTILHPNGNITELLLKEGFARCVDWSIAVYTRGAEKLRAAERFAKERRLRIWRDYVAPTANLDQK

T2: purified SND1 (16-339aa) protein (UniProt Q7KZF4 16-339)
T2 sequence: T1 sequence

B1: CFP-MTDH (386-407aa) (domain or fragment)
chain: SSADPNSDWNAPAEEWGNWVDE
B2: wild type MTDH (MTDH-WT) minimal peptide (peptide)
peptide: PNSDWNAPAEEWGNW

Key:
TC-SND1 (16-339aa) = molecular target: T1, TC-SND1 (16-339aa); assay: FRET or BRET
[1] = molecular target: T2, purified SND1 (16-339aa) protein; assay: MST

Row | Binder | binding result (TC-SND1 (16-339aa)) | binding result [1]
1 | B1 | binds | –
2 | B2 | binds | binds
